In this data set the test system is MS2 coat protein. Briefly: apparent KD of MS2 coat protein; higher = weaker reporter binding. Particulars: Eterna round: R107. The essentials: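 Each design's apparent KD comes from the median of binding-curve fits to its normalised clusters. Those clusters carried RNA switches transcribed on-chip from Illumina sequencing clusters. SNAP-549-labelled MS2 coat protein was titrated onto them in twofold steps (0.7 or 1.5 nM to 3 µM; per step 0.8–1.5 h down to 10–20 min). Conditions were 100 mM Tris-HCl pH 7.5, 80 mM KCl, 4 mM MgCl2, without or with constant ligand.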

The mark [1] stands for this setting: input ligand: theophylline 20 uM.
Setting [2] is: input ligand: theophylline 2 mM.
[3] abbreviates: input ligand: tryptophan 2.4 mM.

For the sequence “ACCUGUACGAAAAGUGCAGGACACGGAAUACGAGGACCGGUACGGCCGCCACUCGGAAAACCUGAGGAUCACCCUGGUAACCGUG [TrypAS 11 #AlternativeMS2 #Zipper #StaticStem]”, the “apparent KD of MS2 coat protein” value worked out at 0.0216 µM (input ligand: arginine 13.2 mM); 0.0163 µM (input ligand: none); 0.0223 µM under setting [1]; 0.025 µM under setting [2]; 0.0221 µM under setting [3].
With “AGCGGAACGGAAGGGUCCCGAAAUUGUGAUACCAGCCUUGAAUCCGGCCCUUGGCAGCACAUGAGGAUCACCCAUGUACUGCGGU [Arimaed]”, the “apparent KD of MS2 coat protein” value was found to be 0.0114 µM (input ligand: arginine 13.2 mM), 0.0207 µM under setting [1] and 0.0131 µM under setting [3].
Take “AAUUUAAACGGAAGGAGCGUCACUUAAUAUCAACAUGAGGAUCACCCAUGUACGGGUUGUAGACAGGUAGGUCGCCGUCAUUUGA [#15 Same State - Arginine B]”: the “apparent KD of MS2 coat protein” value by setting is: (input ligand: arginine 13.2 mM) 0.0494 µM; (input ligand: none) 0.0479 µM; under setting [1], 0.0745 µM; under setting [2], 0.0645 µM; under setting [3], 0.0535 µM.
On to “CGCCACAUGAGGAUCACCCAUGUCUUGGCGCGAGGACCGGUACGGCCGCCACUCGCGUUUCAGUGAGCGCAUGCGUCCUUGGUAU [Exclusion Tryp A GF10]”, for which the “apparent KD of MS2 coat protein” value is, setting by setting: (input ligand: arginine 13.2 mM) 0.0168 µM; under setting [1], 0.027 µM; under setting [2], 0.0203 µM.
For “UAUAUAGUGAUGGAUACCAGCAGAGAAAACGUUUAUCCUAACAUGAGGAUCACCCAUGUAUGCCCUUGGCAGCUGUUGUUAUAUA [8.L]”, the “apparent KD of MS2 coat protein” value (input ligand: arginine 13.2 mM) was 0.0208 µM, the “apparent KD of MS2 coat protein” value under setting [1] was 0.0301 µM and the “apparent KD of MS2 coat protein” value under setting [3] worked out at 0.0214 µM.
For “ACAUCCAGGUUAAUCGUGGGCAUGGUCGAUACCAGUAUUUUAAUCUACCCUUGGCAGCGACAUGAGGAUCACCCAUGUGCGAUGA [XTheo A #13]”, in that order: 0.0201 µM, 0.0337 µM and 0.0258 µM.
For “ACAUGAGGAUCACCCAUGUUCCUCAUUGAUACCAGUGAAUUUAGACGCCCUUGGCAGCGAGUUUUUUUAGAAGAAGUUUUUUUUU [6.F]” the same measures were 0.158 µM, 0.659 µM and 0.929 µM.
“ACAUGUUGGUGGUAUCUACGAAGGCGGAAACGAGGACCGGUACGGCCGCCACUCGGCGACAUGAGGAUCACCCAUGUGGUUAAGA [Exclusion - Tryptophan A (Freestyle 6)]”: the “apparent KD of MS2 coat protein” value worked out at 0.0215 µM (input ligand: arginine 13.2 mM), 0.118 µM under setting [1] and 0.131 µM under setting [2].
Regarding “UAUCCACAUGAGGAUCACCCAUGUUAGGAAGGAGCGGUGAGUGCACCAGGUAGGUCGCCUAGCUGAGGACUGUCGGUGGAUUCGU [Exclusion - Arginine A (Freestyle 20)]”, the “apparent KD of MS2 coat protein” value (input ligand: arginine 13.2 mM) came out at 0.0397 µM; the “apparent KD of MS2 coat protein” value (input ligand: none) came to 0.088 µM; the “apparent KD of MS2 coat protein” value under setting [1] stood at 0.0673 µM; the “apparent KD of MS2 coat protein” value under setting [2] was determined as 0.0571 µM; the “apparent KD of MS2 coat protein” value under setting [3] was 0.0477 µM.
Consider “ACAUGAGGAUCACCCAUGUAAUAAGGAGAAGGAGCGCGUAAGGACGCAGGUAGGUCGCUCGUGGUCCGGCCGCAAGGCCGGACCA [#1 Same State - Arginine A Attempt #8 (HarryS)]”, for which the “apparent KD of MS2 coat protein” value (input ligand: arginine 13.2 mM) is 0.00483 µM; the “apparent KD of MS2 coat protein” value (input ligand: none) was found to be 0.0112 µM; the “apparent KD of MS2 coat protein” value under setting [1] turned out to be 0.0154 µM; the “apparent KD of MS2 coat protein” value under setting [2] is 0.00804 µM; the “apparent KD of MS2 coat protein” value under setting [3] amounted to 0.00931 µM.
For “GUUUAAAGGUCGGCCGCCACUGUAGGAUGUGUUCUUUCACAUGAGGAUCACCCAUGUUGUUAUUAUAGGACCGGGAUUUUAGGAC [39MS split4]”, the “apparent KD of MS2 coat protein” value worked out at 0.0258 µM (input ligand: arginine 13.2 mM), 0.0331 µM under setting [1] and 0.0274 µM under setting [2].
Regarding “AUAAGUACGUCAGAUACCAGACAGCCAGACUUACAUGAGGAUCACCCAUGUGGAUGGACGGUCCCUUGGCAGCUGGCCGCAAAAG [Isedgeor]”, the “apparent KD of MS2 coat protein” value runs as follows: (input ligand: arginine 13.2 mM) 0.172 µM; under setting [1], 0.128 µM; under setting [3], 0.216 µM.
In the case of “CUAUAAGUACCGGUCCUCAGAUCCUCAUGACGAGGACCGGUACGGCCGCCACUCGAAACAUGAGGAUCACCCAUGUAAUAAUAAU [Brourdmod06]”, the “apparent KD of MS2 coat protein” value by setting is: (input ligand: arginine 13.2 mM) 0.015 µM; under setting [1], 0.0385 µM; under setting [2], 0.0245 µM.
“CGUAUUACGAAAGUAGUACGUAGUGUUCGACGAGGACCGGUACGGCCGCCACUCGGACAUGAGGAUCACCCAUGUAGCGAAAGCU [Tryptophan A 24]”: the “apparent KD of MS2 coat protein” value (input ligand: arginine 13.2 mM) came out at 0.0461 µM; the “apparent KD of MS2 coat protein” value (input ligand: none) is 0.255 µM; the “apparent KD of MS2 coat protein” value under setting [1] worked out at 0.301 µM; the “apparent KD of MS2 coat protein” value under setting [2] was 0.247 µM; the “apparent KD of MS2 coat protein” value under setting [3] was found to be 0.0283 µM.
Regarding “AGACAUGAGGAUCACCCAUGUAGUACGGAUACCAGAUCCAGAUGCGUCCCUUGGCAGCUGUGGUACAGCGUUACAUCGCUCGUAG [Exclusion - Theophylline A (Freestyle 23)]”, the “apparent KD of MS2 coat protein” value (input ligand: arginine 13.2 mM) is 0.016 µM, the “apparent KD of MS2 coat protein” value under setting [1] came to 0.0299 µM and the “apparent KD of MS2 coat protein” value under setting [3] worked out at 0.0186 µM.
For “ACGACGCAUAGUGAUACCAGUAGAACAUGAGGAUCACCCAUGUCAGAUAUGUUCUAAUACUGCCCUUGGCAGCACUAUGCGUCAG [SSTheo B #4]” the same measures were 0.144 µM, 0.344 µM and 0.299 µM.
Consider “UGACAUUGCUCAGAUACCAGACAUGAGGAUCACCCAUGUGCCAAACGUACAAUAAUAAAUGUCCCUUGGCAGCUGAGCAAUGUCU [TheoBX 14 #MS2Left #Theo2]”, for which the “apparent KD of MS2 coat protein” value came to 0.0134 µM (input ligand: arginine 13.2 mM), 0.0173 µM under setting [1] and 0.0116 µM under setting [3].
As for “AGUCUUAAAGGAAGGAGCGCAAUCAUAACAUGAGGAUCACCCAUGUCGAGGUGAGGGUCAUUGCAGGUAGGUCGCCUUACUAAGA [Same State - Arginine B (Freestyle 7)]”, the “apparent KD of MS2 coat protein” value was found to be 0.128 µM (input ligand: arginine 13.2 mM); 0.0796 µM (input ligand: none); 0.0887 µM under setting [1]; 0.134 µM under setting [2]; 0.0784 µM under setting [3].
